Literature values, collected in paper PMC3159772.

Key:
NTS2 (Homo sapiens) = NTS2 (Homo sapiens) (UniProt O95665)
NTS1 (Homo sapiens) = NTS1 (Homo sapiens) (UniProt P30989)
Chain of UniProt P30989 (P30989 whole entry): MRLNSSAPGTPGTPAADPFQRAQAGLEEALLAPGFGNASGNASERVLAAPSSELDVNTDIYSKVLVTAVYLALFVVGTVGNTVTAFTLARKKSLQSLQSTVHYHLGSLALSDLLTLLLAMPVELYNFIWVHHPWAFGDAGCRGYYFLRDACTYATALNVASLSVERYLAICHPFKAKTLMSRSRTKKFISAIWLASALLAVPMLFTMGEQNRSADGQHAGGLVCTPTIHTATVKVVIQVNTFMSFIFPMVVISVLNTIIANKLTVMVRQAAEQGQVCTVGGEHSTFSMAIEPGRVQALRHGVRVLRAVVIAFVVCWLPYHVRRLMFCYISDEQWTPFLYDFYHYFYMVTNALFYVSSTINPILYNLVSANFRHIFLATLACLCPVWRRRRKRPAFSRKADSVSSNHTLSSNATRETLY

Chain of UniProt O95665 (O95665 whole entry): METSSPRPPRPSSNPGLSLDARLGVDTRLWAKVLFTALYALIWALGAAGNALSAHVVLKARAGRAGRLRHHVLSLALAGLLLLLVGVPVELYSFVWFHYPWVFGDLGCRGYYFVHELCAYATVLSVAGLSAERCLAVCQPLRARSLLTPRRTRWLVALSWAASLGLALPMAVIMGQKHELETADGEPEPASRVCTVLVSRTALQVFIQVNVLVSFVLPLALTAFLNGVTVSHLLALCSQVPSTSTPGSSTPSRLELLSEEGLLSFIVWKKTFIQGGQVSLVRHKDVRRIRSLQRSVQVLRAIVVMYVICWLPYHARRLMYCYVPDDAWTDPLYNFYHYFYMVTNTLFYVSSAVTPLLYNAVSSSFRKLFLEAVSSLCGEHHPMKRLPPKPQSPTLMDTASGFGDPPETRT

In the case of NT69L (from UniProt P30990), the Kd (NTS2 (Homo sapiens)) is listed as 2.1 nM and the Kd (NTS1 (Homo sapiens)) is listed as 3.1 nM.
